Measurements from article PMC12334862.
pKd: −log10 of the molar value.

Legend:
[1] = target: collybistin CB2SH3+ (Rattus norvegicus) (UniProt Q9QX73); assay: FRET; settings: cited from earlier work
[2] = target: His6-tagged dimerization-deficient rat gephyrin variant (G483D, S505F), trimers (ddGephT) (rat); assay: SEC; single proteins: preparative Superdex 200 16/60 after Ni-NTA and analytical Superose 6 increase; molecular weights by comparison to standard proteins; oligomeric state of the protein with itself
[3] = target: His6-tagged rat gephyrin P1, wild type, high oligomers (GephHO) (rat); assay: SEC; as a1 with 1.5 nmol of the respective PIP (10 mol% in POPC) or POPC alone in DDM micelles added; SEC buffer with 0.01% DDM; height of the > 5 MDa void peak P1 at 280 nm
[4] = target: His6-tagged rat gephyrin P1, wild type, high oligomers (GephHO) (rat); assay: SEC; single proteins: preparative Superdex 200 16/60 after Ni-NTA and analytical Superose 6 increase; molecular weights by comparison to standard proteins; oligomeric state of the protein with itself
[5] = target: gephyrin from pig brain (pig (endogenous in pig brain tissue)); assay: native gel or EMSA; blue native PAGE (4%-16%) of the cytosol fraction of pig brain, western blot for gephyrin
[6] = target: His6-tagged rat gephyrin E-domain, wild type (WT-GephE) (rat); assay: mass photometry; Refeyn TwoMP; 5 nM final in 25 mM Tris/HCl pH 7.5, 150 mM NaCl, 5 mM β-mercaptoethanol, 1% glycerol; 60 s
[7] = target: His6-tagged rat gephyrin P1, wild type, trimers (GephT) (rat); assay: SEC; single proteins: preparative Superdex 200 16/60 after Ni-NTA and analytical Superose 6 increase; molecular weights by comparison to standard proteins; oligomeric state of the protein with itself

gephyrin E-domain, sequence (Q03555 326-768): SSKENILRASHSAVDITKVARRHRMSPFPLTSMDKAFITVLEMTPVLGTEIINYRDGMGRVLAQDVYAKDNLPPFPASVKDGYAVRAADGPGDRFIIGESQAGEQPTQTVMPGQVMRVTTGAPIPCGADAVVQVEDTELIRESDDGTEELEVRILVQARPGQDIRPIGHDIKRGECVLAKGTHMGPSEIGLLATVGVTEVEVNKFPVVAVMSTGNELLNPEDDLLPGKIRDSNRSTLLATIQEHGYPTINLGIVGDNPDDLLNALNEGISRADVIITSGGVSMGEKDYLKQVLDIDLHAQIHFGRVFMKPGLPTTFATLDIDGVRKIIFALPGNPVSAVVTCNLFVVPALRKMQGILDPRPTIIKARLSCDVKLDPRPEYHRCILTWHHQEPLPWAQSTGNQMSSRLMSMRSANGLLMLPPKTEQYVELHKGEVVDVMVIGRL
collybistin CB2SH3+ (Rattus norvegicus), sequence (Q9QX73 whole entry): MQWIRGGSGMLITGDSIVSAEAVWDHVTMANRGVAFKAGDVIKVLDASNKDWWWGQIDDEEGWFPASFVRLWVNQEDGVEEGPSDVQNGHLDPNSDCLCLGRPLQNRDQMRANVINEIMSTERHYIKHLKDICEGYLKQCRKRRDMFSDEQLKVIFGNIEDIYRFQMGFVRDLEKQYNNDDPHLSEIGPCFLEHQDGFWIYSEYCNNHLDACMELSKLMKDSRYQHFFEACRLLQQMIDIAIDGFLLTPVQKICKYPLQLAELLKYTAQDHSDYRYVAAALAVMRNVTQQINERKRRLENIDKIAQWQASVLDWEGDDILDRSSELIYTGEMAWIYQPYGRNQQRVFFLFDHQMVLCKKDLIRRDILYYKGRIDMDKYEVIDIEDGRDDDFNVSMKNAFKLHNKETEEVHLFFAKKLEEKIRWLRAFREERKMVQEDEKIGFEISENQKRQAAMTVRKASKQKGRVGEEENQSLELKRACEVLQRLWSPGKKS

In the case of gephyrin E-domain (from UniProt Q03555), the pKd [1] is listed as 5.20.

Substance “His6-tagged dimerization-deficient rat gephyrin variant (G483D, S505F), trimers (ddGephT) (natural protein)” has a stoichiometry N [2] of 3.

In the case of “His6-tagged rat collybistin isoform 2 lacking the SH3 domain (CB2_(SH3-)) (natural protein)”, the P1 (> 5 MDa complex peak) absorption at 280 nm with PI(3,4)P2 [3] was 344 mAU, the P1 (> 5 MDa complex peak) absorption at 280 nm with PI(3,4,5)P3 [3] was 378 mAU and the P1 (> 5 MDa complex peak) absorption at 280 nm with PI(4,5)P2 [3] was 255 mAU. It also gave a P1 (> 5 MDa complex peak) absorption at 280 nm with POPC [3] of 148 mAU, an increase of the CB2SH3- band share within P1 with PI(3,4,5)P3 against the POPC control [3] of 22% and an increase of the GephHO band share within P1 with PI(3,4,5)P3 against the POPC control [3] of 21%.

Work on “His6-tagged rat gephyrin P1, wild type, high oligomers (GephHO) (natural protein)” yielded a stoichiometry N [4] of 12.

“gephyrin from pig brain (natural protein)” showed a stoichiometry N [5] of 3.

Work on “His6-tagged rat gephyrin E-domain, wild type (WT-GephE) (domain or fragment)” yielded a stoichiometry N [6] of 2.

For “His6-tagged rat gephyrin P1, wild type, trimers (GephT) (natural protein)”, the stoichiometry N [7] was 3.
